Data as given in the supplement of paper PMC10567573.

B1: NETO1 (parent)
chain: GFSPIIGRFCGQQNPPVIKSSGRF

Variants of: B1
Experiment: protein stability index of a GFP-peptide fusion (GPS, HEK-293T) (PSI 1-6); higher = more stable
Details: c terminus: a fixed tail appended
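Also: lentivirally expressed fusions sorted by FACS into six bins by GFP to DsRed ratio, PSI derived from sequencing read proportions per bin multiplied by bin number.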

Variant | protein stability index
GFSPIIGRFMGQQNPPVIKSSGRF | 2.27
GFSPIIGRFNGQQNPPVIKSSGRF | 3.13
GFSPIIGRFPGQQNPPVIKSSGRF | 3.47
GFSPIIGRFQGQQNPPVIKSSGRF | 2.4
GFSPIIGRFRGQQNPPVIKSSGRF | 2.63
GFSPIIGRFSGQQNPPVIKSSGRF | 2.9
GFSPIIGRFTGQQNPPVIKSSGRF | 3.29
GFSPIIGRFVGQQNPPVIKSSGRF | 2.46
GFSPIIGRFWGQQNPPVIKSSGRF | 2.3
GFSPIIGRFYGQQNPPVIKSSGRF | 2.42
GFSPIIGRFCAQQNPPVIKSSGRF | 2.01
GFSPIIGRFCCQQNPPVIKSSGRF | 1.6
GFSPIIGRFCDQQNPPVIKSSGRF | 2.76
GFSPIIGRFCEQQNPPVIKSSGRF | 2.54
GFSPIIGRFCFQQNPPVIKSSGRF | 2.03
GFSPIIGRFCHQQNPPVIKSSGRF | 1.91
GFSPIIGRFCIQQNPPVIKSSGRF | 1.83
GFSPIIGRFCKQQNPPVIKSSGRF | 1.91
GFSPIIGRFCLQQNPPVIKSSGRF | 2.31
GFSPIIGRFCMQQNPPVIKSSGRF | 1.51
GFSPIIGRFCNQQNPPVIKSSGRF | 2.17
GFSPIIGRFCPQQNPPVIKSSGRF | 2.58
GFSPIIGRFCQQQNPPVIKSSGRF | 2.38
GFSPIIGRFCRQQNPPVIKSSGRF | 1.63

Variant | protein stability index
GFSPIIGRFCSQQNPPVIKSSGRF | 2.38
GFSPIIGRFCTQQNPPVIKSSGRF | 2.58
GFSPIIGRFCVQQNPPVIKSSGRF | 2.36
GFSPIIGRFCWQQNPPVIKSSGRF | 2.26
GFSPIIGRFCYQQNPPVIKSSGRF | 1.89
GFSPIIGRFCGAQNPPVIKSSGRF | 1.57
GFSPIIGRFCGCQNPPVIKSSGRF | 2.32
GFSPIIGRFCGDQNPPVIKSSGRF | 2.53
GFSPIIGRFCGEQNPPVIKSSGRF | 2.35
GFSPIIGRFCGFQNPPVIKSSGRF | 1.8
GFSPIIGRFCGGQNPPVIKSSGRF | 2.26
GFSPIIGRFCGHQNPPVIKSSGRF | 2.3
GFSPIIGRFCGIQNPPVIKSSGRF | 2.16
GFSPIIGRFCGKQNPPVIKSSGRF | 2.33
GFSPIIGRFCGLQNPPVIKSSGRF | 1.75
GFSPIIGRFCGMQNPPVIKSSGRF | 1.94
GFSPIIGRFCGNQNPPVIKSSGRF | 2.35
GFSPIIGRFCGPQNPPVIKSSGRF | 2.75
GFSPIIGRFCGRQNPPVIKSSGRF | 1.78
GFSPIIGRFCGSQNPPVIKSSGRF | 2.03
GFSPIIGRFCGTQNPPVIKSSGRF | 2.26
GFSPIIGRFCGVQNPPVIKSSGRF | 2.15
GFSPIIGRFCGWQNPPVIKSSGRF | 1.72
GFSPIIGRFCGYQNPPVIKSSGRF | 2.01

Variant | protein stability index
GFSPIIGRFCGQANPPVIKSSGRF | 1.83
GFSPIIGRFCGQCNPPVIKSSGRF | 1.42
GFSPIIGRFCGQDNPPVIKSSGRF | 1.96
GFSPIIGRFCGQENPPVIKSSGRF | 2.22
GFSPIIGRFCGQFNPPVIKSSGRF | 1.75
GFSPIIGRFCGQGNPPVIKSSGRF | 1.89
GFSPIIGRFCGQHNPPVIKSSGRF | 1.88
GFSPIIGRFCGQINPPVIKSSGRF | 2.17
GFSPIIGRFCGQKNPPVIKSSGRF | 1.88
GFSPIIGRFCGQLNPPVIKSSGRF | 2.3
GFSPIIGRFCGQMNPPVIKSSGRF | 2.3
GFSPIIGRFCGQNNPPVIKSSGRF | 2.31
GFSPIIGRFCGQPNPPVIKSSGRF | 2.31
GFSPIIGRFCGQRNPPVIKSSGRF | 2.64
GFSPIIGRFCGQSNPPVIKSSGRF | 1.63
GFSPIIGRFCGQTNPPVIKSSGRF | 3.12
GFSPIIGRFCGQVNPPVIKSSGRF | 2.36
GFSPIIGRFCGQWNPPVIKSSGRF | 1.61
GFSPIIGRFCGQYNPPVIKSSGRF | 2.22
GFSPIIGRFCGQQAPPVIKSSGRF | 2.25
GFSPIIGRFCGQQDPPVIKSSGRF | 2.48
GFSPIIGRFCGQQEPPVIKSSGRF | 2.38
GFSPIIGRFCGQQFPPVIKSSGRF | 2.26
GFSPIIGRFCGQQGPPVIKSSGRF | 2.19

Variant | protein stability index
GFSPIIGRFCGQQHPPVIKSSGRF | 2.18
GFSPIIGRFCGQQIPPVIKSSGRF | 1.92
GFSPIIGRFCGQQKPPVIKSSGRF | 2.04
GFSPIIGRFCGQQLPPVIKSSGRF | 1.66
GFSPIIGRFCGQQMPPVIKSSGRF | 1.8
GFSPIIGRFCGQQPPPVIKSSGRF | 2.21
GFSPIIGRFCGQQQPPVIKSSGRF | 3.08
GFSPIIGRFCGQQRPPVIKSSGRF | 2.12
GFSPIIGRFCGQQSPPVIKSSGRF | 2.35
GFSPIIGRFCGQQTPPVIKSSGRF | 1.67
GFSPIIGRFCGQQVPPVIKSSGRF | 1.24
GFSPIIGRFCGQQWPPVIKSSGRF | 1.87
GFSPIIGRFCGQQYPPVIKSSGRF | 1.99
GFSPIIGRFCGQQNAPVIKSSGRF | 2.44
GFSPIIGRFCGQQNCPVIKSSGRF | 2.19
GFSPIIGRFCGQQNDPVIKSSGRF | 2.4
GFSPIIGRFCGQQNEPVIKSSGRF | 2.27
GFSPIIGRFCGQQNFPVIKSSGRF | 2.34
GFSPIIGRFCGQQNGPVIKSSGRF | 2.79
GFSPIIGRFCGQQNHPVIKSSGRF | 2.01
GFSPIIGRFCGQQNIPVIKSSGRF | 2.1
GFSPIIGRFCGQQNKPVIKSSGRF | 1.99
